# From US6887705B1, “Tyrosine phosphorylated cleavage furrow-associated proteins (PSTPIPs)” (Genentech, Inc., priority 1997, dated 2005)
# Numbering of substitutions follows the chain as printed. In names and notes the source's numbering stands.
# T1: PTP HSCF (Mus musculus, UniProt Q61152)
# T1 construct: the PST (and C-terminal homolog) of PTP HSCF (amino acids 304-453); made in house; host or cells: E. coli DH5-alpha
# T1 sequence (Q61152 304-453): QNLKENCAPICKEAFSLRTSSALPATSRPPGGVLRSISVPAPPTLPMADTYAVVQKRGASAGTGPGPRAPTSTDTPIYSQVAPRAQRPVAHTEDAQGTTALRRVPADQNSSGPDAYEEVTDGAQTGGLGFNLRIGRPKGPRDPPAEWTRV
# B1: F221: PST PIP with phenylalanine 221 mutated to alanine (protein)
# chain: MMAQLQFRDAFWCRDFTAHTGYEVLLQRLLDGRKMCKDVEELLRQRAQAEERYGKELVQIARKAGGQTEMNSLRTSFDSLKQQTENVGSAHIQLALALREELRSLEEFRERQKEQRKKYEAIMDRVQKSKLSLYKKTMESKKAYDQKCRDADDAEQAFERVSANGHQKQVEKSQNKAKQCKESATEAERVYRQNIEQLERARTEWEQEHRTTCEAFQLQEADRLTILRNALWVHCNQLSMQCVKDDELYEEVRLTLEGCDVEGDINGFIQSKSTGREPPAPVPYQNYYDREVTPLIGSPSIQPSCGVIKRFSGLLHGSPKTTPSAPAASTETLTPTPERNELVYASIEVQATQGNLNSSAQDYRALYDYTAQNSDELDISAGDILAVILEGEDGWWTVERNGQRGFVPGSYLEKLDYKDDDDK
# B2: R62K: PST PIP clustered alanine substitution starting at R62 (protein)
# chain: B1 chain with R62A, K63A, A221F
# B3: E110RQ: PST PIP clustered alanine substitution starting at E110 (protein)
# chain: B1 chain with E110A, R111A, Q112A, A221F
# B4: N86VG: PST PIP clustered alanine substitution starting at N86 (protein)
# chain: B1 chain with N86A, V87A, G88A, A221F
# B5: E50ER: PST PIP clustered alanine substitution starting at E50 (protein)
# chain: B1 chain with E50A, E51A, R52A, A221F
# B6: L224: PST PIP with leucine 224 mutated to alanine (protein)
# chain: B1 chain with A221F, L224A
# B7: R99EE: PST PIP clustered alanine substitution starting at R99 (protein)
# chain: B1 chain with R99A, E100A, E101A, A221F
# B8: D38VE: PST PIP clustered alanine substitution starting at D38 (protein)
# chain: B1 chain with D38A, V39A, E40A, A221F
# B9: wild type PTP HSCF: PEST-type protein tyrosine phosphatase PTP HSCF, wild type (protein)
# chain: MSRHTDLVRSFLEQLEARDYREGAILAREFSDIKARSVAWKSEGVCSTKAGSRLGNTNKNRYKDVVAYDETRVILSLLQEEGHGDYINANFIRGIDGSQAYIATQGPLPHTLLDFWRLVWEFGVKVILMACQETENGRRKCERYWAREQEPLKAGPFCITLTKETTLNADITLRTLQVTFQKEFRSVHQLQYMSWPDHGVPSSSDHILTMVEEARCLQGLGPGPLCVHCSAGCGRTGVLCAVDYVRQLLLTQTIPPNFSLFQVVLEMRKQRPAAVQTEEQYRFLYHTVAQLFSRTLQDTSPHYQNLKENCAPICKEAFSLRTSSALPATSRPPGGVLRSISVPAPPTLPMADTYAVVQKRGASAGTGPGPRAPTSTDTPIYSQVAPRAQRPVAHTEDAQGTTALRRVPADQNSSGPDAYEEVTDGAQTGGLGFNLRIGRPKGPRDPPAEWTRV
# modifications: left off: small tags and cut ends
# Molecular target: T1, PTP HSCF
# Experiment: In vitro GST pull-down binding of PST PIP forms to PTP HSCF
# Conditions: in vitro
# Experimental: The binding was carried out according to the method of Wong and Johnson (Wong et al., J. Biol. Chem. 271(35):20981-20984 (1996)). Briefly, 1 μg of plasmid with either the PSTPIP protein or PTP HSCF under the control of the Sp6 promoter was in vitro transcribed/translated using the Promega™ TnT Rabbit Reticulocyte™ system. Samples were diluted in 50 mM HEPES, pH 7.2, 1% triton X 100, 10% glycerol, 100 mM NaCl, 5 mM EDTA and 2 μg/ml each of leupeptin, pepstatin, aprotinin, and PMSF. […] This was reacted for 1 hour at 4° C. and then the resin washed 6 times in HEPES/Triton binding buffer before SDS gel electrophoresis. The peptides were synthesized on an automated Milligen 9050 Peptide Synthesizer using standard solid phase chemistry with FMOC protected amino acids on a p-alkoxybenzyl alcohol resin. Dried peptides were re-suspended in the HEPES/Triton Binding buffer at a concentration of 10 mg/ml. Peptide inhibition was performed by adding the peptide first to the in vitro translation product and then the GST-fusion followed by the GSH-Sepharose. The binding/washing steps were as previously described. The peptides synthesized and the PTPs they were derived from were: • PXXP-HSCF: 432[…]451 (PTP HSCF) (SEQ ID NO:20), • PXXP-PEP: 782GFGNRFSKPKGPRNPPSAW800 (PTP PEP) (SEQ ID NO:21), • PXXP-PEST: 761[…]780 (PTP PEST) SEQ ID NO:22), • PXXP-CONTROL: 334[…]353 (PTP HSCF) (SEQ ID NO:23).
# In vitro binding analyses between various PTP HSCF and PST PIP constructs were performed as previously described (Spencer et al, (1997), supra). Briefly, plasmids were transcribed and translated in vitro using the TnT Rabbit Reticulocyte Lysate System (Promega). Samples were diluted in 50 mM HEPES, pH 7.2, 1% triton X-100, 10% glycerol, 100 mM NaCl, and 2 μg/ml each of leupeptin, pepstatin, aprotinin and PMSF (lysis buffer). Samples were than reacted with GST fusion proteins at various concentrations, and the bound proteins were centrifuged using glutathione-sepharose beads and analyzed on SDS polyacrylamide gels. C-terminally-derived peptide inhibition studies were performed by incubating the GST fusion protein binding reactions in the presence of 10 μg/ml of the indicated peptides. Peptides were produced by FMOC-protected amino acids as previously described (Spencer et al, (1997), supra). In vivo interactions between various forms of PTP HSCF and PST PIP were also performed as previously described (Spencer et al, (1997), supra). Briefly, COS cells were transfected with various constructs, and after 48 hours, lysates were prepared and immunoprecipitated with antibodies to either the FLAG epitope contained at the C-terminus of PST PIP or an HA epitope contained at the N-terminus of PTP HSCF. The resultant blots were probed with anti-FLAG to detect PST PIP, anti-HA to detect PTP HSCF or anti-phosphotyrosine to detect levels of this modified amino acid in each protein.
row,Molecule,binding of in vitro translated PST PIP forms to GST fusion of C-terminal 149 amino acids of PTP HSCF
1,B1,no effect on PTP HSCF binding was observed
2,B2,either no or a minor change in the binding activity
3,B3,either no or a minor change in the binding activity
4,B4,either no or a minor change in the binding activity
5,B5,either no or a minor change in the binding activity
6,B6,no effect on PTP HSCF binding was observed
7,B7,either no or a minor change in the binding activity
8,B8,either no or a minor change in the binding activity

# System: PSTPIP tyrosine phosphorylation
# Experiment: Tyrosine phosphorylation of PSTPIP in COS cells co-transfected with V-src
# Type: cell-based
# Conditions: COS cells expressing PSTPIP and V-src
# Experimental: Baf3 cells were lysed in 1% Triton, 50 mM HEPES. 10% glycerol and 5 mM EDTA containing 1 μg/ml aprotinin, PMSF, leupeptin and pepstatin were 1 mM Sodium Vanadate and 10 mM Iodoacetic acid. Cells were treated with 0.1 mM Pervanadate for 4 hours before lysis. Immunoprecipitations were performed in the vanadate-containing lysis buffer using 1 μg/ml anti-PSTPIP polyclonal antibody and 400 μg of lysate protein at 4° C. overnight. Western blots were performed using 1 μg/ml affinity purified anti-PSTPIP or 1:5000 dilution of commercial 4G10 anti-phosphotyrosine monoclonal (Upstate Biotech). Signal was detected by HRPO-ECL reagents (Pierce). The C221-S mutant was as previously described (Cheng et al., (1996) supra). The PTP HSCF D197-A mutant was generated using PCR. Mutagenesis primer D197A.F ([…]) (SEQ ID NO:24), corresponding to nucleotide 591, and primer D197A.R ([…]) (SEQ ID NO:25) which corresponds to the stop codon, were used in PCR to generate a fragment that could be cut with Mscl and XbaI. pRK.HA.38 WT, a plasmid which encoded the wild type enzyme under the control of the cytomegalovirus promoter (Cheng et al., (1996) supra), was digested with Clal and Mscl and the resulting 600 bp fragment was ligated with the Mscl-Xbal PCR fragment into the Clal and Xbal sites of the pRK.tkneo. A plasmid encoding the V-src oncogene under the control of the SV40 early promoter was the kind gift of Dr. Art Levinson (CEO-Genetech, Inc.). NIH 3T3 cells and the COS-7 cells were cultured in high glucose DMEM supplemented with 10% FBS, 2 mM L-Glutamine, 10 mM HEPES pH 7.2 and pen-strep.
# COS-7 cells were transfected by electroporation. Briefly, 1.5×10^6 COS-7 cells were mixed with 24 μg total DNA in PBS and electroporated at 960 μF, […] (Bio-Rad™ Gene Pulsar™). Following electroporation, cells were seeded in 10 cm dishes and incubated for 3 days. 10-cm dishes of transfected COS cells were washed twice with ice-cold PBS, and lysed in 1 ml of M-RIPA (50 mM Tris 7.4, 1% NP40, 0.25% DOC, 150 mM NaCl, 1 mM sodium ortho-vanadate, 1 mM NaF plus Complete™ Protease Inhibitors (Boehringer Mannheim)). Lysates were incubated for 15 minutes with 100 μl UltraLink Immobilized Protein A/G™ (Pierce) at 4° C., followed by centrifugation for 5 minutes. Supernatants were collected and stored at −70° C. or directly immunoprecipitated. 5 μg of M2 or 12CA5 was added to 500 μl of lysate and incubated overnight at 4° C. Ultralink Protein A/G™ was added and incubation continued for 2 hours at 4° C. The immune complexes were washed 3 times with M-RIPA. The proteins were subjected to SDS-PAGE and transferred to nitrocellulose in 1X Transfer Buffer™ (Novex). Immunoblots were blocked overnight at 4° C. in 3% milk/PBS. To detect Flag-tagged PIP, blots were incubated with 10 μg/ml Bio-M2 (Biotinylated anti-FLAG monoclonal Ab, KODAK) followed by incubation in 10 μg/ml streptavidin-HRP (UBI). To detect HA-tagged PTPhscf, blots were incubated in anti-(HA)-peroxidase (Boehringer Mannheim) as per manufacturer's instructions. To detect phosphotyrosine, blots were incubated in HRP-conjugated 4G10 (anti-phosphotyrosine monoclonal, UBI) as per manufacture's instructions.
# COS cells were transfected with a constant amount of either the wild type of W232A mutant of PST PIP and cotransfected with increasing amounts of a plasmid encoding the v-Src tyrosine kinase (Spencer et al, (1997), supra). Plasmid concentrations were equalized with an empty vector containing the CMV promoter. After 48 hours, lysates were prepare and immunoprecipitated with anti-FLAG monoclonal antibody. Precipitates were run on SDS polyacrylamide gels, blotted, and probed with either anti-FLAG antibody or anti-phosphotyrosine antibody as previously described (Spencer et al, (1997), supra). Bound antibodies were visualized using enhanced chemiluminescent reagents.
row,Molecule,level of tyrosine phosphate on PSTPIP on cotransfection of PTP HSCF forms
1,B9,decreased level of tyrosine phosphate
